Data: PMC3464217
pKd: −log10 of the molar value.

Molecular target: recombinant gp160 (HIV (IIIB or MN/LAI))
Experiment: SPR
Conditions: bispecific antibody

Substance	Ka [M⁻¹]	pKd
HY-[Fx2-Hx4-Fx2]-7B2 (from UniProt P01857)	4.6e+10	10.68
HY-[Hx4]-7B2 (from UniProt P01857)	1.7e+10	–
